Experimental data published in patent US20260167959A1, “APTAZYME-BASED REGULATABLE GENE EXPRESSION SYSTEMS” (REJUVENATE BIO INC, priority 2022, published 2026).

B1: RA228 (nucleic acid)
DNA: GCGCGTCCTGGATTCGCGGAAACGCGTACATCCAGCTGGGAATACCAGCATCGTCTTGATGCCCTTGGAAGTCCACGAGTCCCAAATAGGACGAAACGCGC
modifications: chemistry not given here
B2: RA223 (nucleic acid)
DNA: GCGCGTCCTGCGAGAATACCAGCATCGTCTTGATGCCCTTGGAAGTCTCGGATTCGCGGAAACGCGTACATCCAGCTGACGAGTCCCAAATAGGACGAAACGCGC
modifications: expressed or natural sequence
B3: RA225 (nucleic acid)
DNA: GCGCGTCCTGGATTCGCGGAAACGCGTACATCCAGCTGACGAGTCCCAAATAAGAATACCAGCATCGTCTTGATGCCCTTGGAAGTCTGGACGAAACGCGC
modifications: expressed or natural sequence
B4: RA234 (nucleic acid)
DNA: GCGCGTCCTGGATTCGCGGAAACGCGTACATCCAGCTGACGAGTCCCAAATAGGACGAAACCGGAATACCAGCATCGTCTTGATGCCCTTGGAAGTCCGGCGC
modifications: expressed or natural sequence
B5: RA230 (nucleic acid)
DNA: GCGCGTCCTGAGAATACCAGCATCGTCTTGATGCCCTTGGAAGTCTCGGATTCGCGGAAACGCGTACATCCAGCTGACGAGTCCCAAATAGGACGAAACGCGC
modifications: expressed or natural sequence
B6: RA229 (nucleic acid)
DNA: GCGCCGGAATACCAGCATCGTCTTGATGCCCTTGGAAGTCCGGCGTCCTGGATTCGCGGAAACGCGTACATCCAGCTGACGAGTCCCAAATAGGACGAAACGCGC
modifications: expressed or natural sequence
B7: RA216 (nucleic acid)
DNA: GCGCGTCCTGGATTCGCGGAAACGCGTACATCCAGCTGACGAGTCAGTGATACCAGCATCGTCTTGATGCCCTTGGCAGCACTCCAAATAGGACGAAACGCGC
modifications: expressed or natural sequence
B8: RA236 (nucleic acid)
DNA: GCGCGTCCTGGATTCGCGGAAACGCGTACACCGGAATACCAGCATCGTCTTGATGCCCTTGGAAGTCCGGTCCAGCTGACGAGTCCCAAATAGGACGAAACGCGC
modifications: expressed or natural sequence
B9: RA218 (nucleic acid)
DNA: GCGCGTCCTGGATTCGCGGAAACGCGTACATCCAAGTGATACCAGCATCGTCTTGATGCCCTTGGCAGCACTGCTGACGAGTCCCAAATAGGACGAAACGCGC
modifications: expressed or natural sequence
B10: RA021 (nucleic acid)
DNA: GCGCGTCCTGGATTCGCGGAAACGCGTACATCCAGCTGACGAGTCCCAAATAGAGTGATACCAGCATCGTCTTGATGCCCTTGGCAGCACTGACGAAACGCGC
modifications: expressed or natural sequence
B11: RA212 (nucleic acid)
DNA: GCGCGTCCTGGATTCAGAATACCAGCATCGTCTTGATGCCCTTGGAAGTCTGCGGAAACGCGTACATCCAGCTGACGAGTCCCAAATAGGACGAAACGCGC
modifications: expressed or natural sequence
B12: RA235 (nucleic acid)
DNA: GCGCGTCCTGGATTCGCGGAAACGCGTACATCCAGCTGACGAGTCCCAAATAGGAGAGAATACCAGCATCGTCTTGATGCCCTTGGAAGTCTCCGAAACGCGC
modifications: expressed or natural sequence
B13: RA231 (nucleic acid)
DNA: GCGAGAATACCAGCATCGTCTTGATGCCCTTGGAAGTCTCGCGTCCTGGATTCGCGGAAACGCGTACATCCAGCTGACGAGTCCCAAATAGGACGAAACGCGC
modifications: expressed or natural sequence
B14: RA233 (nucleic acid)
DNA: GCAGTGATACCAGCATCGTCTTGATGCCCTTGGCAGCACTGCGTCCTGGATTCGCGGAAACGCGTACATCCAGCTGACGAGTCCCAAATAGGACGAAACGCGC
modifications: expressed or natural sequence
B15: RA219 (nucleic acid)
DNA: GCGCGTCCTGGATTCGCGGAAACGCGTACATCCAGCGGAATACCAGCATCGTCTTGATGCCCTTGGAAGTCCTGACGAGTCCCAAATAGGACGAAACGCGC
modifications: expressed or natural sequence
B16: RA211 (nucleic acid)
DNA: GCGCGTCCTGGATTCGGGAATACCAGCATCGTCTTGATGCCCTTGGAAGTCCCGGAAACGCGTACATCCAGCTGACGAGTCCCAAATAGGACGAAACGCGC
modifications: expressed or natural sequence
B17: RA217 (nucleic acid)
DNA: GCGCGTCCTGGATTCCGAGAATACCAGCATCGTCTTGATGCCCTTGGAAGTCTCGGCGGAAACGCGTACATCCAGCTGACGAGTCCCAAATAGGACGAAACGCGC
modifications: expressed or natural sequence
B18: RA224 (nucleic acid)
DNA: GCGCGTCCTGGATTCGCGGAAACGCGTACATCCAGCTGACGAGTCCCAAATAGAGAATACCAGCATCGTCTTGATGCCCTTGGAAGTCTGACGAAACGCGC
modifications: expressed or natural sequence
B19: RA222 (nucleic acid)
DNA: GCGCGTCCTGGATTCGCGGAAACGCGTACATCCAGCTGACAGAATACCAGCATCGTCTTGATGCCCTTGGAAGTCTGAGTCCCAAATAGGACGAAACGCGC
modifications: expressed or natural sequence
B20: RA213 (nucleic acid)
DNA: GCGCGTCCTGGATTCGCGGAAACGCGTACATCCAGCTCGAGAATACCAGCATCGTCTTGATGCCCTTGGAAGTCTCGGACGAGTCCCAAATAGGACGAAACGCGC
modifications: expressed or natural sequence
B21: RA022 (nucleic acid)
DNA: GCGCGTCCTGGATTCGCGGAAACGCGTACAAGTGATACCAGCATCGTCTTGATGCCCTTGGCAGCACTTCCAGCTGACGAGTCCCAAATAGGACGAAACGCGC
modifications: expressed or natural sequence
B22: RA214 (nucleic acid)
DNA: GCGCGTCCTGGATTCGCGAGAATACCAGCATCGTCTTGATGCCCTTGGAAGTCTCGGAAACGCGTACATCCAGCTGACGAGTCCCAAATAGGACGAAACGCGC
modifications: expressed or natural sequence
B23: RA227 (nucleic acid)
DNA: GCGCGTCCGAGAATACCAGCATCGTCTTGATGCCCTTGGAAGTCTCGCTGGATTCGCGGAAACGCGTACATCCAGCTGACGAGTCCCAAATAGGACGAAACGCGC
modifications: expressed or natural sequence
B24: RA221 (nucleic acid)
DNA: GCGCGTCCTGGATTCGCGGAAACGCGTACATCCAGCTGACGGAATACCAGCATCGTCTTGATGCCCTTGGAAGTCCGCGAGTCCCAAATAGGACGAAACGCGC
modifications: expressed or natural sequence
B25: RA226 (nucleic acid)
DNA: GCGCGTCCTGGATTCGCGGAAACGCGTACATCCAGCTGAAGTGATACCAGCATCGTCTTGATGCCCTTGGCAGCACTCGAGTCCCAAATAGGACGAAACGCGC
modifications: expressed or natural sequence
B26: RA220 (nucleic acid)
DNA: GCCGAGAATACCAGCATCGTCTTGATGCCCTTGGAAGTCTCGGCGTCCTGGATTCGCGGAAACGCGTACATCCAGCTGACGAGTCCCAAATAGGACGAAACGCGC
modifications: expressed or natural sequence
B27: RA232 (nucleic acid)
DNA: GCCCGGAATACCAGCATCGTCTTGATGCCCTTGGAAGTCCGGGCGTCCTGGATTCGCGGAAACGCGTACATCCAGCTGACGAGTCCCAAATAGGACGAAACGCGC
modifications: expressed or natural sequence

The molecules below were run on Renilla luciferase RNA (assay: Barcoded aptazyme variant library screen: un-cleaved Renilla luciferase RNA by barcode read counts, HEK293-T cells). Settings: un-cleaved Renilla luciferase RNA, HEK293-T cells cultured with 1 mM theophylline (ON) over without theophylline (OFF); barcode read counts, triplicate.
Assay type: cell-based
Outline: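 Aptazyme variants (seven theophylline aptamers inserted after each T3H48 ribozyme nucleotide, 9-nt barcoded) cloned into the 3′ UTR of Renilla luciferase in psiCHECK-2; cells cultured ± theophylline, in triplicate. RNA and DNA barcodes amplified and sequenced; normalized read counts gave un-cleaved RNA fraction and ON/OFF fold-change.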
In the case of B1, the “Fold change in RNA expression between the ON state and the OFF state” value (shortened to “Fold change”) is reported as 1.1 fold. B2 was tested, and the “Fold change” value was 1.2 fold. For B3, the “Fold change” value was 1.1 fold. For B4, the “Fold change” value was 1.1 fold. For B5, the “Fold change” value was 1.1 fold. For B6, the “Fold change” value was 1.1 fold. With B7 the “Fold change” value was 1.2 fold. In the case of B8, the “Fold change” value is reported as 1.1 fold. With B9 the “Fold change” value was 1.2 fold. For B10, the “Fold change” value was 2.7 fold. For B11, the “Fold change” value was 1.2 fold. B12 was tested, and the “Fold change” value was 1.1 fold. With B13 the “Fold change” value was 1.1 fold. With B14 the “Fold change” value was 1.1 fold. In the case of B15, the “Fold change” value is reported as 1.2 fold. In the case of B16, the “Fold change” value is reported as 1.2 fold. With B17 the “Fold change” value was 1.2 fold. B18 was tested, and the “Fold change” value was 1.1 fold. B19 was tested, and the “Fold change” value was 1.2 fold. In the case of B20, the “Fold change” value is reported as 1.2 fold. For B21, the “Fold change” value was 2.6 fold. In the case of B22, the “Fold change” value is reported as 1.2 fold. In the case of B23, the “Fold change” value is reported as 1.1 fold. B24 was tested, and the “Fold change” value was 1.2 fold. For B25, the “Fold change” value was 1.1 fold. With B26 the “Fold change” value was 1.2 fold. With B27 the “Fold change” value was 1.1 fold.
